± gives the standard deviation of the averaged measurements.

Data set [1] relates to VchCAST RNA-guided transposition machinery (E. coli BL21(DE3) host, lacZ target). Description: relative integration efficiency (T-LR orientation) vs wild-type transposon end (log2 (normalized fold change)); transposon end mutated: right end (5 bp flank + 75 bp right end); higher = more efficient transposition. The procedure, abridged: (§1)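 A T7-driven effector plasmid encoding a CRISPR array, tniQ-cas8-cas7-cas6 and tnsA-tnsB-tnsC was co-transformed into E. coli BL21(DE3) together with a pUC57 mini-transposon donor holding barcoded pools of 1549 left-end or 1849 right-end variants. Transformants were plated with 0.1 mM IPTG at 37°C for 18 h. Illumina sequencing of PCR-amplified input plasmids and genomic integration junctions gave barcode abundances, and relative integration efficiency is their output/input fold change, normalised to reference barcodes and log-transformed.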

Data set [2] shares this test system. The data set can be described thus: relative integration efficiency (T-RL orientation) vs wild-type transposon end (log2 (normalized fold change)); transposon end mutated: right end (5 bp flank + 75 bp right end); higher = more efficient transposition. The procedure, abridged: as §1

For “ACATTTGTTGATACAACCATAAAATGATAATTACAACCATAAAGTGATATTTATCAGTGGGTATTTAACTATAACGCTCTGATCATAGTCAGACCAACATTGCTACGACCCGTATTCGCACCGACAC”, the “relative integration efficiency (log2)” value in data set [1] was 2.5 ± 0.1; in data set [2], -0.586 ± 0.2.
Take “ACATTTGTTGATACAACCATAAAATGATAATTACAACCATAAGTTGATATTTTTCACAACCATAAAATGATAATTACTCTGATCATAGTCAGACCAACATTGCTACGACCCGTATTCGCACCGACAC”: the entries for the “relative integration efficiency (log2)” value in data set [1] and in data set [2] were -0.0321 ± 0.022 and -0.308 ± 0.21, respectively.
The like results for “ACATTTGTTGATACAACCATAAAATGATAATTACAACCATAAGTTGATATTTTTCACAACCATAAAGTGATATTTACTCTGATCATAGTCAGACCAACATTGCTACGACCCGTATTCGCACCGACAC” were, in that order, 0.666 ± 0.12 and 0.274 ± 0.2.
The like results for “ACATTTGTTGATACAACCATAAAATGATAATTACAACCATAAGTTGATATTTTTCACAACCATAAGTTGATATTTTCTCTGATCATAGTCAGACCAACATTGCTACGACCCGTATTCGCACCGACAC” were, in that order, -0.201 ± 0.37 and 0.0355 ± 0.25.
The corresponding values for “ACATTTGTTGATACAACCATAAAATGATAATTACAACCATAAGTTGATATTTTTCACAACCATATATTGATATCTCCTCTGATCATAGTCAGACCAACATTGCTACGACCCGTATTCGCACCGACAC” are 0.235 ± 0.079 and -0.125 ± 0.19.
Take “ACATTTGTTGATACAACCATAAAATGATAATTACAACCATAAGTTGATATTTTTCACACCCATAAATTGATAATTACTCTGATCATAGTCAGACCAACATTGCTACGACCCGTATTCGCACCGACAC”: the “relative integration efficiency (log2)” value in data set [1] is -0.141 ± 0.51; in data set [2] it was -0.168 ± 0.11.
The like results for “ACATTTGTTGATACAACCATAAAATGATAATTACAACCATAAGTTGATATTTTTCACACCCATAAATTGATATTGCCTCTGATCATAGTCAGACCAACATTGCTACGACCCGTATTCGCACCGACAC” were, in that order, 0.0596 ± 0.086 and -0.349 ± 0.2.
For the sequence “ACATTTGTTGATACAACCATAAAATGATAATTACAACCATAAGTTGATATTTTTCAGTGGGTATTTAACTATAACGCTCTGATCATAGTCAGACCAACATTGCTACGACCCGTATTCGCACCGACAC”, the “relative integration efficiency (log2)” value in data set [1] is 2.72 ± 0.21; in data set [2] it was -0.515 ± 0.22.
The like results for “ACATTTGTTGATACAACCATAAAATGATAATTACAACCATATATTGATATCTCTCACAACCATAAAATGATAATTACTCTGATCATAGTCAGACCAACATTGCTACGACCCGTATTCGCACCGACAC” were, in that order, 0.146 ± 0.15 and -0.257 ± 0.18.
For the sequence “ACATTTGTTGATACAACCATAAAATGATAATTACAACCATATATTGATATCTCTCACAACCATAAAGTGATATTTACTCTGATCATAGTCAGACCAACATTGCTACGACCCGTATTCGCACCGACAC”, the “relative integration efficiency (log2)” value in data set [1] was 0.0743 ± 0.02; in data set [2], -0.5 ± 0.27.
The like results for “ACATTTGTTGATACAACCATAAAATGATAATTACAACCATATATTGATATCTCTCACAACCATAAGTTGATATTTTCTCTGATCATAGTCAGACCAACATTGCTACGACCCGTATTCGCACCGACAC” were, in that order, -0.141 ± 0.5 and -0.374 ± 0.19.
The corresponding values for “ACATTTGTTGATACAACCATAAAATGATAATTACAACCATATATTGATATCTCTCACAACCATATATTGATATCTCCTCTGATCATAGTCAGACCAACATTGCTACGACCCGTATTCGCACCGACAC” are 0.0166 ± 0.61 and -0.574 ± 0.17.
In the case of “ACATTTGTTGATACAACCATAAAATGATAATTACAACCATATATTGATATCTCTCACACCCATAAATTGATAATTACTCTGATCATAGTCAGACCAACATTGCTACGACCCGTATTCGCACCGACAC”, the results for the “relative integration efficiency (log2)” value in data set [1] and in data set [2] were -0.0249 ± 0.15 and -0.651 ± 0.2, respectively.
The like results for “ACATTTGTTGATACAACCATAAAATGATAATTACAACCATATATTGATATCTCTCACACCCATAAATTGATATTGCCTCTGATCATAGTCAGACCAACATTGCTACGACCCGTATTCGCACCGACAC” were, in that order, 0.0992 ± 0.38 and -0.424 ± 0.15.
The corresponding values for “ACATTTGTTGATACAACCATAAAATGATAATTACAACCATATATTGATATCTCTCAGTGGGTATTTAACTATAACGCTCTGATCATAGTCAGACCAACATTGCTACGACCCGTATTCGCACCGACAC” are 3.01 ± 0.18 and -0.933 ± 0.28.
Turning to “ACATTTGTTGATACAACCATAAAATGATAATTACACAAATAAATTGATAATTATCACACCCATAAATTGATATTGCCTCTGATCATAGTCAGACCAACATTGCTACGACCCGTATTCGCACCGACAC”, the “relative integration efficiency (log2)” value is -1.82 ± 0.23 in data set [1] and -0.996 ± 0.19 in data set [2].
For “ACATTTGTTGATACAACCATAAAATGATAATTACACAACGAAATTGATAATTATCACACCCATAAATTGATATTGCCTCTGATCATAGTCAGACCAACATTGCTACGACCCGTATTCGCACCGACAC”, the “relative integration efficiency (log2)” value is -3.53 ± 0.42 in data set [1] and -3.5 ± 0.2 in data set [2].
For “ACATTTGTTGATACAACCATAAAATGATAATTACACAACGCCCGGTCGCCGGCGACACAAACGCCCGGTCGCGGTAAGAGGATCATAGTCAGACCAACATTGCTACGACCCGTATTCGCACCGACAC”, the “relative integration efficiency (log2)” value in data set [1] is 0.604 ± 0.2; in data set [2] it was -2.42 ± 0.23.
The like results for “ACATTTGTTGATACAACCATAAAATGATAATTACACCACGCAATTGATAATTATCACACCCATAAATTGATATTGCCTCTGATCATAGTCAGACCAACATTGCTACGACCCGTATTCGCACCGACAC” were, in that order, -2.53 ± 0.18 and -3.04 ± 0.044.
The like results for “ACATTTGTTGATACAACCATAAAATGATAATTACACCACGCCCGGTCGCCGGCGACACAAACGCCCGGTCGCGGTAAGAGGATCATAGTCAGACCAACATTGCTACGACCCGTATTCGCACCGACAC” were, in that order, 0.799 ± 0.081 and -2.31 ± 0.082.
For “ACATTTGTTGATACAACCATAAAATGATAATTACACCACTAAATTGATAATTATCACACCCATAAATTGATATTGCCTCTGATCATAGTCAGACCAACATTGCTACGACCCGTATTCGCACCGACAC”, the “relative integration efficiency (log2)” value is -2.09 ± 0.036 in data set [1] and -1.78 ± 0.12 in data set [2].
The corresponding values for “ACATTTGTTGATACAACCATAAAATGATAATTACACCCAATAATTGATAATTATCACACCCATAAATTGATATTGCCTCTGATCATAGTCAGACCAACATTGCTACGACCCGTATTCGCACCGACAC” are -0.381 ± 0.18 and -0.277 ± 0.02.
As to “ACATTTGTTGATACAACCATAAAATGATAATTACACCCAATTTTTGATAATTATCACACCCATAAATTGATATTGCCTCTGATCATAGTCAGACCAACATTGCTACGACCCGTATTCGCACCGACAC”, the entries for the “relative integration efficiency (log2)” value in data set [1] and in data set [2] were -0.688 ± 0.35 and -0.529 ± 0.16, respectively.
The corresponding values for “ACATTTGTTGATACAACCATAAAATGATAATTACACCCAGCAATTGATAATTATCACACCCATAAATTGATATTGCCTCTGATCATAGTCAGACCAACATTGCTACGACCCGTATTCGCACCGACAC” are -2.55 ± 0.22 and -2.18 ± 0.085.
On to “ACATTTGTTGATACAACCATAAAATGATAATTACACCCAGCCCGGTCGCCGGCGACACAAACGCCCGGTCGCGGTAAGAGGATCATAGTCAGACCAACATTGCTACGACCCGTATTCGCACCGACAC”, for which the “relative integration efficiency (log2)” value in data set [1] is 1.03 ± 0.08; in data set [2] it was -1.97 ± 0.16.
The corresponding values for “ACATTTGTTGATACAACCATAAAATGATAATTACACCCAGCCCTTGATAATTATCACACCCATAAATTGATATTGCCTCTGATCATAGTCAGACCAACATTGCTACGACCCGTATTCGCACCGACAC” are -2.1 ± 0.29 and -1.99 ± 0.04.
The like results for “ACATTTGTTGATACAACCATAAAATGATAATTACACCCATAAAAACTTAATTATCACACCCATAAATTGATATTGCCTCTGATCATAGTCAGACCAACATTGCTACGACCCGTATTCGCACCGACAC” were, in that order, -0.52 ± 0.069 and -0.679 ± 0.12.
The corresponding values for “ACATTTGTTGATACAACCATAAAATGATAATTACACCCATAAAAAGATAATTATCACACCCATAAATTGATATTGCCTCTGATCATAGTCAGACCAACATTGCTACGACCCGTATTCGCACCGACAC” are -1.08 ± 0.96 and -0.162 ± 0.011.
As for “ACATTTGTTGATACAACCATAAAATGATAATTACACCCATAAAGGGATAATTATCACACCCATAAATTGATATTGCCTCTGATCATAGTCAGACCAACATTGCTACGACCCGTATTCGCACCGACAC”, the “relative integration efficiency (log2)” value is -0.969 ± 0.58 in data set [1] and -0.447 ± 0.064 in data set [2].
The like results for “ACATTTGTTGATACAACCATAAAATGATAATTACACCCATAAAGGTCGCCGGCGACACAAACGCCCGGTCGCGGTAAGAGGATCATAGTCAGACCAACATTGCTACGACCCGTATTCGCACCGACAC” were, in that order, 0.613 ± 0.011 and -2.2 ± 0.37.
Consider “ACATTTGTTGATACAACCATAAAATGATAATTACACCCATAAAGGTCTAATTATCACACCCATAAATTGATATTGCCTCTGATCATAGTCAGACCAACATTGCTACGACCCGTATTCGCACCGACAC”, for which the results for the “relative integration efficiency (log2)” value in data set [1] and in data set [2] were -1.72 ± 0.31 and -1.77 ± 0.13, respectively.
The like results for “ACATTTGTTGATACAACCATAAAATGATAATTACACCCATAAATACATAATTATCACACCCATAAATTGATATTGCCTCTGATCATAGTCAGACCAACATTGCTACGACCCGTATTCGCACCGACAC” were, in that order, -0.737 ± 0.026 and -0.763 ± 0.18.

These data come from the supplement of paper PMC10201428.
